Assay results taken from publication PMC2234252 (The Journal of Cell Biology, 2008).

T1: hZwint-1 (human, UniProt O95229 1-277)
T1 sequence (looked up): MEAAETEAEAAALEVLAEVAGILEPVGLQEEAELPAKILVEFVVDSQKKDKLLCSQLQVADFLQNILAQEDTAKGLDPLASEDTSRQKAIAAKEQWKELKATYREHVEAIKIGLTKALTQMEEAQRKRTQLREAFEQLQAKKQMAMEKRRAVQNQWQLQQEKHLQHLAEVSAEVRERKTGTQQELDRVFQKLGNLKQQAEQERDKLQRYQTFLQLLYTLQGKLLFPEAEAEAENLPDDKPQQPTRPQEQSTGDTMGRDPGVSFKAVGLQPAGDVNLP


Each binder was assayed against T1, hZwint-1 (assay: two-hybrid).

Row | β-galactosidase assay | Binder
1 | 132 | hZW10 C7 (aa 1–318) (domain or fragment, human, UniProt O43264 1-318, looked up) MASFVTEVLAHSGRLEKEDLGTRISRLTRRVEEIKGEVCNMISKKYSEFLPSMQSAQGLITQVDKLSEDIDLLKSRIESEVRRDLHVSTGEFTDLKQQLERDSVVLSLLKQLQEFSTAIEEYNCALTEKKYVTGAQRLEEAQKCLKLLKSRKCFDLKILKSLSMELTIQKQNILYHLGEEWQKLIVWKFPPSKDTSSLESYLQTELHLYTEQSHKEEKTPMPPISSVLLAFSVLGELHSKLKSFGQMLLKYILRPLASCPSLHAVIESQPNIVIIRFESIMTNLEYPSPSEVFTKIRLVLEVLQKQLLDLPLDTDLEN
2 | 233 | hZW10 C8 (aa 1–224) (domain or fragment, human, UniProt O43264 1-224, looked up) MASFVTEVLAHSGRLEKEDLGTRISRLTRRVEEIKGEVCNMISKKYSEFLPSMQSAQGLITQVDKLSEDIDLLKSRIESEVRRDLHVSTGEFTDLKQQLERDSVVLSLLKQLQEFSTAIEEYNCALTEKKYVTGAQRLEEAQKCLKLLKSRKCFDLKILKSLSMELTIQKQNILYHLGEEWQKLIVWKFPPSKDTSSLESYLQTELHLYTEQSHKEEKTPMPPI
3 | 1 | hZW10 C4 (aa 1–496) (domain or fragment, human, UniProt O43264 1-496, looked up) MASFVTEVLAHSGRLEKEDLGTRISRLTRRVEEIKGEVCNMISKKYSEFLPSMQSAQGLITQVDKLSEDIDLLKSRIESEVRRDLHVSTGEFTDLKQQLERDSVVLSLLKQLQEFSTAIEEYNCALTEKKYVTGAQRLEEAQKCLKLLKSRKCFDLKILKSLSMELTIQKQNILYHLGEEWQKLIVWKFPPSKDTSSLESYLQTELHLYTEQSHKEEKTPMPPISSVLLAFSVLGELHSKLKSFGQMLLKYILRPLASCPSLHAVIESQPNIVIIRFESIMTNLEYPSPSEVFTKIRLVLEVLQKQLLDLPLDTDLENEKTSTVPLAEMLGDMIWEDLSECLIKNCLVYSIPTNSSKLQQYEEIIQSTEEFENALKEMRFLKGDTTDLLKYARNINSHFANKKCQDVIVAARNLMTSEIHNTVKIIPDSKINVPELPTPDEDNKLEVQKVSNTQYHEVMNLEPENTLDQHSFSLPTCRISESVKKLMELAYQTLLE
4 | 2.14 | hZW10 N1 (aa 52–779) (domain or fragment, human, UniProt O43264 52-779, looked up) SMQSAQGLITQVDKLSEDIDLLKSRIESEVRRDLHVSTGEFTDLKQQLERDSVVLSLLKQLQEFSTAIEEYNCALTEKKYVTGAQRLEEAQKCLKLLKSRKCFDLKILKSLSMELTIQKQNILYHLGEEWQKLIVWKFPPSKDTSSLESYLQTELHLYTEQSHKEEKTPMPPISSVLLAFSVLGELHSKLKSFGQMLLKYILRPLASCPSLHAVIESQPNIVIIRFESIMTNLEYPSPSEVFTKIRLVLEVLQKQLLDLPLDTDLENEKTSTVPLAEMLGDMIWEDLSECLIKNCLVYSIPTNSSKLQQYEEIIQSTEEFENALKEMRFLKGDTTDLLKYARNINSHFANKKCQDVIVAARNLMTSEIHNTVKIIPDSKINVPELPTPDEDNKLEVQKVSNTQYHEVMNLEPENTLDQHSFSLPTCRISESVKKLMELAYQTLLEATTSSDQCAVQLFYSVRNIFHLFHDVVPTYHKENLQKLPQLAAIHHNNCMYIAHHLLTLGHQFRLRLAPILCDGTATFVDLVPGFRRLGTECFLAQMRAQKGELLERLSSARNFSNMDDEENYSAASKAVRQVLHQLKRLGIVWQDVLPVNIYCKAMGTLLNTAISEVIGKITALEDISTEDGDRLYSLCKTVMDEGPQVFAPLSEESKNKKYQEEVPVYVPKWMPFKELMMMLQASLQEIGDRWADGKGPLAAAFSSSEVKALIRALFQNTERRAAALAKIK
5 | 2.5 | hZW10 C3 (aa 1–560) (domain or fragment, human, UniProt O43264 1-560, looked up) MASFVTEVLAHSGRLEKEDLGTRISRLTRRVEEIKGEVCNMISKKYSEFLPSMQSAQGLITQVDKLSEDIDLLKSRIESEVRRDLHVSTGEFTDLKQQLERDSVVLSLLKQLQEFSTAIEEYNCALTEKKYVTGAQRLEEAQKCLKLLKSRKCFDLKILKSLSMELTIQKQNILYHLGEEWQKLIVWKFPPSKDTSSLESYLQTELHLYTEQSHKEEKTPMPPISSVLLAFSVLGELHSKLKSFGQMLLKYILRPLASCPSLHAVIESQPNIVIIRFESIMTNLEYPSPSEVFTKIRLVLEVLQKQLLDLPLDTDLENEKTSTVPLAEMLGDMIWEDLSECLIKNCLVYSIPTNSSKLQQYEEIIQSTEEFENALKEMRFLKGDTTDLLKYARNINSHFANKKCQDVIVAARNLMTSEIHNTVKIIPDSKINVPELPTPDEDNKLEVQKVSNTQYHEVMNLEPENTLDQHSFSLPTCRISESVKKLMELAYQTLLEATTSSDQCAVQLFYSVRNIFHLFHDVVPTYHKENLQKLPQLAAIHHNNCMYIAHHLLTLGHQFR
6 | 275 | hZW10 C6 (aa 1–356) (domain or fragment, human, UniProt O43264 1-356, looked up) MASFVTEVLAHSGRLEKEDLGTRISRLTRRVEEIKGEVCNMISKKYSEFLPSMQSAQGLITQVDKLSEDIDLLKSRIESEVRRDLHVSTGEFTDLKQQLERDSVVLSLLKQLQEFSTAIEEYNCALTEKKYVTGAQRLEEAQKCLKLLKSRKCFDLKILKSLSMELTIQKQNILYHLGEEWQKLIVWKFPPSKDTSSLESYLQTELHLYTEQSHKEEKTPMPPISSVLLAFSVLGELHSKLKSFGQMLLKYILRPLASCPSLHAVIESQPNIVIIRFESIMTNLEYPSPSEVFTKIRLVLEVLQKQLLDLPLDTDLENEKTSTVPLAEMLGDMIWEDLSECLIKNCLVYSIPTNSS
7 | 187 | hZW10 full length (aa 1–779) (natural protein, human, UniProt O43264 1-779, looked up) MASFVTEVLAHSGRLEKEDLGTRISRLTRRVEEIKGEVCNMISKKYSEFLPSMQSAQGLITQVDKLSEDIDLLKSRIESEVRRDLHVSTGEFTDLKQQLERDSVVLSLLKQLQEFSTAIEEYNCALTEKKYVTGAQRLEEAQKCLKLLKSRKCFDLKILKSLSMELTIQKQNILYHLGEEWQKLIVWKFPPSKDTSSLESYLQTELHLYTEQSHKEEKTPMPPISSVLLAFSVLGELHSKLKSFGQMLLKYILRPLASCPSLHAVIESQPNIVIIRFESIMTNLEYPSPSEVFTKIRLVLEVLQKQLLDLPLDTDLENEKTSTVPLAEMLGDMIWEDLSECLIKNCLVYSIPTNSSKLQQYEEIIQSTEEFENALKEMRFLKGDTTDLLKYARNINSHFANKKCQDVIVAARNLMTSEIHNTVKIIPDSKINVPELPTPDEDNKLEVQKVSNTQYHEVMNLEPENTLDQHSFSLPTCRISESVKKLMELAYQTLLEATTSSDQCAVQLFYSVRNIFHLFHDVVPTYHKENLQKLPQLAAIHHNNCMYIAHHLLTLGHQFRLRLAPILCDGTATFVDLVPGFRRLGTECFLAQMRAQKGELLERLSSARNFSNMDDEENYSAASKAVRQVLHQLKRLGIVWQDVLPVNIYCKAMGTLLNTAISEVIGKITALEDISTEDGDRLYSLCKTVMDEGPQVFAPLSEESKNKKYQEEVPVYVPKWMPFKELMMMLQASLQEIGDRWADGKGPLAAAFSSSEVKALIRALFQNTERRAAALAKIK
8 | 3.4 | hZW10 C1 (aa 1–772) (domain or fragment, human, UniProt O43264 1-772, looked up) MASFVTEVLAHSGRLEKEDLGTRISRLTRRVEEIKGEVCNMISKKYSEFLPSMQSAQGLITQVDKLSEDIDLLKSRIESEVRRDLHVSTGEFTDLKQQLERDSVVLSLLKQLQEFSTAIEEYNCALTEKKYVTGAQRLEEAQKCLKLLKSRKCFDLKILKSLSMELTIQKQNILYHLGEEWQKLIVWKFPPSKDTSSLESYLQTELHLYTEQSHKEEKTPMPPISSVLLAFSVLGELHSKLKSFGQMLLKYILRPLASCPSLHAVIESQPNIVIIRFESIMTNLEYPSPSEVFTKIRLVLEVLQKQLLDLPLDTDLENEKTSTVPLAEMLGDMIWEDLSECLIKNCLVYSIPTNSSKLQQYEEIIQSTEEFENALKEMRFLKGDTTDLLKYARNINSHFANKKCQDVIVAARNLMTSEIHNTVKIIPDSKINVPELPTPDEDNKLEVQKVSNTQYHEVMNLEPENTLDQHSFSLPTCRISESVKKLMELAYQTLLEATTSSDQCAVQLFYSVRNIFHLFHDVVPTYHKENLQKLPQLAAIHHNNCMYIAHHLLTLGHQFRLRLAPILCDGTATFVDLVPGFRRLGTECFLAQMRAQKGELLERLSSARNFSNMDDEENYSAASKAVRQVLHQLKRLGIVWQDVLPVNIYCKAMGTLLNTAISEVIGKITALEDISTEDGDRLYSLCKTVMDEGPQVFAPLSEESKNKKYQEEVPVYVPKWMPFKELMMMLQASLQEIGDRWADGKGPLAAAFSSSEVKALIRALFQNTERRA
9 | 26.6 | hZW10 C5 (aa 1–410) (domain or fragment, human, UniProt O43264 1-410, looked up) MASFVTEVLAHSGRLEKEDLGTRISRLTRRVEEIKGEVCNMISKKYSEFLPSMQSAQGLITQVDKLSEDIDLLKSRIESEVRRDLHVSTGEFTDLKQQLERDSVVLSLLKQLQEFSTAIEEYNCALTEKKYVTGAQRLEEAQKCLKLLKSRKCFDLKILKSLSMELTIQKQNILYHLGEEWQKLIVWKFPPSKDTSSLESYLQTELHLYTEQSHKEEKTPMPPISSVLLAFSVLGELHSKLKSFGQMLLKYILRPLASCPSLHAVIESQPNIVIIRFESIMTNLEYPSPSEVFTKIRLVLEVLQKQLLDLPLDTDLENEKTSTVPLAEMLGDMIWEDLSECLIKNCLVYSIPTNSSKLQQYEEIIQSTEEFENALKEMRFLKGDTTDLLKYARNINSHFANKKCQDVIVA
10 | 2.6 | hZW10 C2 (aa 1–698) (domain or fragment, human, UniProt O43264 1-698, looked up) MASFVTEVLAHSGRLEKEDLGTRISRLTRRVEEIKGEVCNMISKKYSEFLPSMQSAQGLITQVDKLSEDIDLLKSRIESEVRRDLHVSTGEFTDLKQQLERDSVVLSLLKQLQEFSTAIEEYNCALTEKKYVTGAQRLEEAQKCLKLLKSRKCFDLKILKSLSMELTIQKQNILYHLGEEWQKLIVWKFPPSKDTSSLESYLQTELHLYTEQSHKEEKTPMPPISSVLLAFSVLGELHSKLKSFGQMLLKYILRPLASCPSLHAVIESQPNIVIIRFESIMTNLEYPSPSEVFTKIRLVLEVLQKQLLDLPLDTDLENEKTSTVPLAEMLGDMIWEDLSECLIKNCLVYSIPTNSSKLQQYEEIIQSTEEFENALKEMRFLKGDTTDLLKYARNINSHFANKKCQDVIVAARNLMTSEIHNTVKIIPDSKINVPELPTPDEDNKLEVQKVSNTQYHEVMNLEPENTLDQHSFSLPTCRISESVKKLMELAYQTLLEATTSSDQCAVQLFYSVRNIFHLFHDVVPTYHKENLQKLPQLAAIHHNNCMYIAHHLLTLGHQFRLRLAPILCDGTATFVDLVPGFRRLGTECFLAQMRAQKGELLERLSSARNFSNMDDEENYSAASKAVRQVLHQLKRLGIVWQDVLPVNIYCKAMGTLLNTAISEVIGKITALEDISTEDGDRLYSLCKTVMDEGPQVFA
11 | 445 | hZW10 C9 (aa 1–139) (domain or fragment, human, UniProt O43264 1-139, looked up) MASFVTEVLAHSGRLEKEDLGTRISRLTRRVEEIKGEVCNMISKKYSEFLPSMQSAQGLITQVDKLSEDIDLLKSRIESEVRRDLHVSTGEFTDLKQQLERDSVVLSLLKQLQEFSTAIEEYNCALTEKKYVTGAQRLE
